Laboratory results taken from patent publication US20210196806A1.

Biological target: CD8+ T cells among expanded tumor infiltrating lymphocytes (TIL) of a lung adenocarcinoma patient (H)
Assay: flow cytometry, tetramer staining of expanded TILs of one patient

Substance “KRAS-G12V/HLA-A*11:01 tetramer (from UniProt P61769 21-119) (peptide-MHC)” has a percent of CD8+ T cells binding the tetramer of over 66%.
